From publication PMC8260879

Key:
[1] = target: EphA4 WT fused to C-terminal mTURQ or EYFP (human) (UniProt P54764); assay: fluorescence intensity fluctuation (FIF) analysis; molecular brightness, no ligand, only the data at receptor concentrations above 3000 receptors/μm^2
[2] = target: EphA4 WT fused to C-terminal mTURQ or EYFP (human) (UniProt P54764); assay: FRET or BRET; FSI-FRET as without ligand but with 0.5 μg/ml ephrinA5-Fc in the hypo-osmotic medium; monomer-dimer equilibrium: dimer to monomers
[3] = target: EphA4 WT fused to C-terminal mTURQ or EYFP (human) (UniProt P54764); assay: fluorescence intensity fluctuation (FIF) analysis; molecular brightness in transfected HEK293 cells in the presence of ephrinA5-Fc
[4] = target: EphA4 WT fused to C-terminal mTURQ or EYFP (human) (UniProt P54764); assay: fluorescence intensity fluctuation (FIF) analysis; molecular brightness in regions of the basolateral membrane of transfected HEK293 cells, no ligand, data over the whole range of receptor concentrations
[5] = target: EphA4 WT fused to C-terminal mTURQ or EYFP (human) (UniProt P54764); assay: FRET or BRET; FSI-FRET of mTURQ- and EYFP-tagged receptor in the plasma membrane of live HEK293T cells, no ligand, hypo-osmotic medium; fit of a monomer-dimer equilibrium (Equation 2): dimer to monomers; constants in two-dimensional concentration

Substance: EphA4 WT fused to C-terminal mTURQ or EYFP (from UniProt P54764-1 20-986) (receptor)
- stoichiometry N [1]: 2
- stoichiometry N [2]: 2
- molecular brightness at the maximum of the distribution [3]: < 2
- molecular brightness at the peak of the distribution [4]: < 2
- oligomeric fraction above 3000 receptors/μm^2 [5]: > 65%
- stoichiometry N [5]: 2
